Experimental data as given in paper PMC2723993, “Crystal Structure of Escherichia coli Polynucleotide Phosphorylase Core Bound to RNase E, RNA and Manganese: Implications for Catalytic Mechanism and RNA Degradosome Assembly” (Journal of Molecular Biology, 2009).

B1: Escherichia coli polynucleotide phosphorylase core (PNPase ΔKHΔS1, lacking the C-terminal S1 and KH domains) (domain or fragment, E. coli)
chain: MLNPIVRKFQYGQHTVTLETGMMARQATAAVMVSMDDTAVFVTVVGQKKAKPGQDFFPLTVNYQERTYAAGRIPGSFFRREGRPSEGETLIARLIDRPIRPLFPEGFVNEVQVIATVVSVNPQVNPDIVAMIGASAALSLSGIPFNGPIGAARVGYINDQYVLNPTQDELKESKLDLVVAGTEAAVLMVESEAQLLSEDQMLGAVVFGHEQQQVVIQNINELVKEAGKPRWDWQPEPVNEALNARVAALAEARLSDAYRITDKQERYAQVDVIKSETIATLLAEDETLDENELGEILHAIEKNVVRSRVLAGEPRIDGREKDMIRGLDVRTGVLPRTHGSALFTRGETQALVTATLGTARDAQVLDELMGERTDTFLFHYNFPPYSVGETGMVGSPKRREIGHGRLAKRGVLAVMPDMDKFPYTVRVVSEITESNGSSSMASVCGASLALMDAGVPIKAAVAGIAMGLVKEGDNYVVLSDILGDEDHLGDMDFKVAGSRDGISALQMDIKIEGITKEIMQVALNQAKGARLHILGVMEQAINAPRGDIS
notes: Expression vector from George Mackie; No tag is mentioned; also called PNPase core; PNPase ΔKΔH1; source: E. coli BL21 (DE3), auto-induction, purified (ammonium sulphate, Q-Sepharose, mono-Q)
B2: RNase E recognition micro-domain (residues 1021-1061) (peptide, UniProt P21513 1021-1061, looked up)
peptide: EAPRHSDWQRPTFAFEGKGAAGGHTATHHASAAPARPQPVE
notes: also called RNase E micro-domain; source: synthetic peptide (Clonestar Biotech Ltd), desalted on PD10

Tests used:
[1] = target: B2; assay: ITC; MicroCal VP-ITC, 25 °C; 200 uM PNPase core injected into 10 uM RNase E micro-domain in the cell; 10 mM Tris pH 7.5, 150 mM NaCl, 1 mM MgCl2; single binding-site model; details: both partners purified
[2] = target: the molecule itself; assay: crystal structure; co-crystals of 165 uM PNPase core mixed with 246 uM RNase E micro-domain (1021-1061), with or without O2'-methyl RNA, Mn2+ or tungstate; four crystal forms; hanging drop, 20 °C
[3] = target: B1; assay: ITC; MicroCal VP-ITC, 25 °C; 200 uM PNPase core injected into 10 uM RNase E micro-domain in the cell; 10 mM Tris pH 7.5, 150 mM NaCl, 1 mM MgCl2; single binding-site model; details: both partners purified

Binder | dH [1] [kcal/mol] | stoichiometry N [1] | stoichiometry N [2] | Ka [3] [M⁻¹] | Kd [3] [nM]
B1 | -21.5 ± 0.52 | 1.02 ± 0.02 | 3 |  | 
B2 |  |  |  | 956000 | ~900
